Two molecules from article PMC7838873, “Purification and Characterization of Recombinant Expressed Apple Allergen Mal d 1” (Methods and Protocols, 2020) can be followed below.

For series [1], the target named is recombinant apple allergen Mal d 1 with a C-terminal polyhistidine-tag (apple (Malus domestica)) (UniProt Q9SYW3). The series can be described thus: SDS-PAGE without added reducing agent + in-gel tryptic digestion with HPLC-MS/MS; purified protein after storage at -20 °C, freeze-thawing or freeze-drying (Tris, phosphate or urea buffer); denatured at 95 °C in SDS Laemmli sample buffer, Coomassie stain, band proportions by Fiji; band of higher molecular weight identified by peptides; dimer survives SDS, probably held by a disulfide bridge.

Series [2] deals with the molecule itself. The series is described as above.

On to “recombinant apple allergen Mal d 1 with a C-terminal polyhistidine-tag (from UniProt Q9SYW3 1-159) (natural protein)”, for which, in series [1], the stoichiometry N (in general, the number of molecules, sites or subunits per partner or assembly) came to 2.

B1: recombinant apple allergen Mal d 1 without polyhistidine-tag (natural protein, apple (Malus domestica), UniProt Q9SYW3 1-159, looked up)
chain: MGVYTFENEFTSEIPPSRLFKAFVLDADNLIPKIAPQAIKQAEILEGNGGPGTIKKITFGEGSQYGYVKHRIDSIDEASYSYSYTLIEGDALTDTIEKISYETKLVACGSGSTIKSISHYHTKGNIEIKEEHVKAGKEKAHGLFKLIESYLKDHPDAYN
notes: n = 159 residues used for the CD calculation; pET-28b(+) vector, NcoI/XhoI, insert 485 bp; also called r-Mal d 1; source: E. coli BL21 star (DE3)pLysS, purified (anion-exchange chromatography, TOYOPEARL SuperQ-650S or GigaCap Q-650M)
Take B1: in series [2], the “stoichiometry N” value stood at 2.
